Here are results for 153 variants from the RNAGym collection of RNA variant scans (doi:10.1073/pnas.2313332121).

Variants at the floor of the assay were thinned out.

The labels stand for the following.
B1: TPR 5TU (parent)
chain: GGAUCUUCUCGAUCUAACAAAAAAGACAAAUCUGCCACAAAGCUUGAGAGCAUCUUCGGAUGCAGAGGCGGCAGCCUUCGGUGGCGCGAUAGCGCCAACGUUCUCAACUAUGACACGCAAAACGCGUGCUCCGUUGAAUGGAGUUUAUCAUG

Variants of B1 are the subject of this data set. In words: polymerase ribozyme fitness, log enrichment relative to wild type (log ratio); higher = more active; in vitro selection for triplet polymerase activity. In outline:
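Both subunits of a heterodimeric triplet polymerase ribozyme were given their own mutant library, built by PCR and transcribed. Each library was annealed with a biotinylated primer, the partner subunit and triplets, incubated frozen at −7 °C, and its extended constructs gel-excised, captured on streptavidin beads and amplified by RT-PCR, all in one round done in triplicate. Fitness is the logarithm of genotype enrichment relative to wild-type enrichment, with replicates averaged by inverse-variance weighting. That logarithm is base 2, and Illumina-sequenced genotypes needed ≥10 input reads and ≥1 read per output.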
U145G U151G: the “polymerase ribozyme fitness (log ratio)” value was -4.07.

G141U: the “polymerase ribozyme fitness (log ratio)” value stood at 1.61.

In the case of G141A, the “polymerase ribozyme fitness (log ratio)” value was determined as 0.689.

For G141C, the “polymerase ribozyme fitness (log ratio)” value was -0.0848.

As to C125U G126A, the “polymerase ribozyme fitness (log ratio)” value was -3.14.

For the variant G143C U145G, the “polymerase ribozyme fitness (log ratio)” value is -1.8.

U134A A142G: the “polymerase ribozyme fitness (log ratio)” value was -3.04.

U134A A142C: the “polymerase ribozyme fitness (log ratio)” value is -2.66.

Regarding G124A G136A, the “polymerase ribozyme fitness (log ratio)” value is -0.107.

Consider A142G U146C, for which the “polymerase ribozyme fitness (log ratio)” value was -3.25.

For the variant A138C U139A, the “polymerase ribozyme fitness (log ratio)” value is -3.78.

Take U139A G143U U146G: the “polymerase ribozyme fitness (log ratio)” value was -3.74.

Consider G141A U144C, for which the “polymerase ribozyme fitness (log ratio)” value was -3.08.

In the case of G124U U135C, the “polymerase ribozyme fitness (log ratio)” value was -2.36.

Regarding C131G A137U, the “polymerase ribozyme fitness (log ratio)” value was -4.16.

A137U G141U: the “polymerase ribozyme fitness (log ratio)” value is -3.93.

Turning to A137U G141A, the “polymerase ribozyme fitness (log ratio)” value is -3.24.

Turning to C125U A150U, the “polymerase ribozyme fitness (log ratio)” value is -0.413.

G140U U146G: the “polymerase ribozyme fitness (log ratio)” value was -3.88.

For G140U U146C, the “polymerase ribozyme fitness (log ratio)” value was -3.33.

As for G133A G141U, the “polymerase ribozyme fitness (log ratio)” value is -3.08.

Take G128A G141A G143U U144G U151A: the “polymerase ribozyme fitness (log ratio)” value is not above -4.2.

U148G U151A: the “polymerase ribozyme fitness (log ratio)” value is -3.95.

In the case of G126A A150G, the “polymerase ribozyme fitness (log ratio)” value was -2.66.

Turning to U151C, the “polymerase ribozyme fitness (log ratio)” value is -2.78.

As for U151G, the “polymerase ribozyme fitness (log ratio)” value is -3.49.

For U151A, the “polymerase ribozyme fitness (log ratio)” value is -3.44.

Take A137G U145G: the “polymerase ribozyme fitness (log ratio)” value was -1.02.

Consider U135A A147U, for which the “polymerase ribozyme fitness (log ratio)” value is -0.75.

In the case of U144C A150C, the “polymerase ribozyme fitness (log ratio)” value was -4.19.

For the variant C123U U145A, the “polymerase ribozyme fitness (log ratio)” value stood at 0.729.

Regarding C149G, the “polymerase ribozyme fitness (log ratio)” value was -2.78.

Regarding C149A, the “polymerase ribozyme fitness (log ratio)” value is -3.33.

For C149U, the “polymerase ribozyme fitness (log ratio)” value is -0.847.

On to G126A C129G, for which the “polymerase ribozyme fitness (log ratio)” value was -3.97.

Take G124U A142C: the “polymerase ribozyme fitness (log ratio)” value was -1.75.

Regarding A137U U148G, the “polymerase ribozyme fitness (log ratio)” value was not above -4.2.

Turning to C131G G133C G136U G141U, the “polymerase ribozyme fitness (log ratio)” value is -3.43.

In the case of C132U A150G, the “polymerase ribozyme fitness (log ratio)” value was -2.47.

With C131G G136U G141U G143U, the “polymerase ribozyme fitness (log ratio)” value was not above -4.2.

Regarding U127G A137U, the “polymerase ribozyme fitness (log ratio)” value is -4.19.

C123U: the “polymerase ribozyme fitness (log ratio)” value worked out at 0.225.

With C123G, the “polymerase ribozyme fitness (log ratio)” value is -0.337.

Take A142G A147U: the “polymerase ribozyme fitness (log ratio)” value is -0.49.

With G124U G143U U148G, the “polymerase ribozyme fitness (log ratio)” value is not above -4.2.

In the case of C129A U148G, the “polymerase ribozyme fitness (log ratio)” value was -4.11.

Consider U146C, for which the “polymerase ribozyme fitness (log ratio)” value came to 0.00807.

With U146G, the “polymerase ribozyme fitness (log ratio)” value is -0.513.

Take U146A: the “polymerase ribozyme fitness (log ratio)” value was -0.305.

Turning to G124A U148C, the “polymerase ribozyme fitness (log ratio)” value is -0.766.

For G124A U148G, the “polymerase ribozyme fitness (log ratio)” value was -3.69.

With C129G U134G, the “polymerase ribozyme fitness (log ratio)” value was -3.81.

With A138U, the “polymerase ribozyme fitness (log ratio)” value is -3.87.

As for A138C, the “polymerase ribozyme fitness (log ratio)” value is -3.67.

Turning to A138G, the “polymerase ribozyme fitness (log ratio)” value is -1.9.

Take G124C G141C: the “polymerase ribozyme fitness (log ratio)” value was -1.16.

With G136A A147G, the “polymerase ribozyme fitness (log ratio)” value is -1.36.

Turning to G126A C132U A142C, the “polymerase ribozyme fitness (log ratio)” value was not above -4.2.

G124C C132A: the “polymerase ribozyme fitness (log ratio)” value is -2.4.

On to C131G, for which the “polymerase ribozyme fitness (log ratio)” value was -2.79.

In the case of C131A, the “polymerase ribozyme fitness (log ratio)” value was -1.77.

Consider C131U, for which the “polymerase ribozyme fitness (log ratio)” value amounted to 1.18.

Turning to U127C C131A G152U, the “polymerase ribozyme fitness (log ratio)” value is -3.91.

Turning to G126U C132U, the “polymerase ribozyme fitness (log ratio)” value is -0.717.

Take U139A U144A: the “polymerase ribozyme fitness (log ratio)” value is -4.15.

Consider A137G, for which the “polymerase ribozyme fitness (log ratio)” value was -1.15.

With A137U, the “polymerase ribozyme fitness (log ratio)” value was -3.39.

Regarding A137C, the “polymerase ribozyme fitness (log ratio)” value is -3.09.

Regarding U139G U148A, the “polymerase ribozyme fitness (log ratio)” value was -2.73.

For U127G U134A, the “polymerase ribozyme fitness (log ratio)” value is -4.18.

On to G140C, for which the “polymerase ribozyme fitness (log ratio)” value was -3.16.

On to G140A, for which the “polymerase ribozyme fitness (log ratio)” value is -2.67.

For the variant G140U, the “polymerase ribozyme fitness (log ratio)” value was -2.62.

For the variant G128U A137U, the “polymerase ribozyme fitness (log ratio)” value is -3.34.

Consider G143A U151G, for which the “polymerase ribozyme fitness (log ratio)” value is not above -4.2.

Regarding C132U U135A, the “polymerase ribozyme fitness (log ratio)” value is -2.46.

U134A U148G: the “polymerase ribozyme fitness (log ratio)” value was not above -4.2.

G128U A142C: the “polymerase ribozyme fitness (log ratio)” value is -3.6.

Take G124C G140C: the “polymerase ribozyme fitness (log ratio)” value is -4.05.

G136C U151G: the “polymerase ribozyme fitness (log ratio)” value was not above -4.2.

On to U145C U146G, for which the “polymerase ribozyme fitness (log ratio)” value worked out at 0.121.

Consider U135G U144G, for which the “polymerase ribozyme fitness (log ratio)” value is -2.41.

U127G G136A: the “polymerase ribozyme fitness (log ratio)” value is -2.89.

For G141A C149G, the “polymerase ribozyme fitness (log ratio)” value was -4.13.

As for C132A, the “polymerase ribozyme fitness (log ratio)” value is -2.06.

As for C132G, the “polymerase ribozyme fitness (log ratio)” value was -3.15.

As for C132U, the “polymerase ribozyme fitness (log ratio)” value is -0.687.

For G128C A150U, the “polymerase ribozyme fitness (log ratio)” value is -4.

Take A138U U151C: the “polymerase ribozyme fitness (log ratio)” value is -4.01.

Consider G126A G143A, for which the “polymerase ribozyme fitness (log ratio)” value is -1.92.

As to U139C U144A, the “polymerase ribozyme fitness (log ratio)” value was -3.36.

On to A137C A138G, for which the “polymerase ribozyme fitness (log ratio)” value is -3.68.

As to U127G A138G A142C, the “polymerase ribozyme fitness (log ratio)” value is -3.48.

As for G126U, the “polymerase ribozyme fitness (log ratio)” value was found to be 0.31.

For the variant G126C, the “polymerase ribozyme fitness (log ratio)” value was 1.28.

In the case of G126A, the “polymerase ribozyme fitness (log ratio)” value was 0.682.

For G136U U144G, the “polymerase ribozyme fitness (log ratio)” value was -3.29.

In the case of G141U G143A, the “polymerase ribozyme fitness (log ratio)” value is -2.79.

As to U146G A150C, the “polymerase ribozyme fitness (log ratio)” value was not above -4.2.

As to C129A, the “polymerase ribozyme fitness (log ratio)” value is -2.46.

On to C129U, for which the “polymerase ribozyme fitness (log ratio)” value was -0.0537.

C129G: the “polymerase ribozyme fitness (log ratio)” value is -2.45.

Turning to U135A G143A A147G, the “polymerase ribozyme fitness (log ratio)” value is not above -4.2.

In the case of U135A C149U, the “polymerase ribozyme fitness (log ratio)” value was -0.66.

As to C125A A147U, the “polymerase ribozyme fitness (log ratio)” value was -0.189.

On to A150G, for which the “polymerase ribozyme fitness (log ratio)” value is -0.734.

A150U: the “polymerase ribozyme fitness (log ratio)” value came to 1.3.

In the case of A150C, the “polymerase ribozyme fitness (log ratio)” value was -2.71.

On to C123U A142U, for which the “polymerase ribozyme fitness (log ratio)” value was -1.13.

Turning to U144G U145A, the “polymerase ribozyme fitness (log ratio)” value stood at 0.571.

On to G124A C125G, for which the “polymerase ribozyme fitness (log ratio)” value amounted to 0.356.

Turning to C129A G143A A150G, the “polymerase ribozyme fitness (log ratio)” value was -3.66.

As for U127A U134C G141C, the “polymerase ribozyme fitness (log ratio)” value is -3.82.

Regarding G133A U134G, the “polymerase ribozyme fitness (log ratio)” value was -2.81.

For the variant G124A G140C, the “polymerase ribozyme fitness (log ratio)” value is -3.89.

In the case of U135A G136C, the “polymerase ribozyme fitness (log ratio)” value is -4.14.

As for A137G U144A, the “polymerase ribozyme fitness (log ratio)” value is -3.01.

On to C125U G141C, for which the “polymerase ribozyme fitness (log ratio)” value was -3.85.

Take U135G A137U: the “polymerase ribozyme fitness (log ratio)” value was -4.04.

For the variant G128A G133A U134C A150G, the “polymerase ribozyme fitness (log ratio)” value is -3.52.

With G126A C132G, the “polymerase ribozyme fitness (log ratio)” value was -2.68.

Take A150C G152A: the “polymerase ribozyme fitness (log ratio)” value is -3.

For A137U G143U, the “polymerase ribozyme fitness (log ratio)” value is -3.39.

Take G141C A150G: the “polymerase ribozyme fitness (log ratio)” value is -3.78.

As for C132U G152U, the “polymerase ribozyme fitness (log ratio)” value is -2.75.

On to A138U A147U, for which the “polymerase ribozyme fitness (log ratio)” value was -3.38.

As for C125U U134G A142C, the “polymerase ribozyme fitness (log ratio)” value is -3.76.

For the variant U127G U144G, the “polymerase ribozyme fitness (log ratio)” value is -1.7.

Consider G141U A142C, for which the “polymerase ribozyme fitness (log ratio)” value is -3.58.

For the variant G140U A147U, the “polymerase ribozyme fitness (log ratio)” value was -2.9.

For U135G G141U U146G, the “polymerase ribozyme fitness (log ratio)” value is not above -4.2.

On to C123U G124A U144C, for which the “polymerase ribozyme fitness (log ratio)” value came out at 0.0575.

G140A G143U: the “polymerase ribozyme fitness (log ratio)” value was not above -4.2.

Consider C125U A147U, for which the “polymerase ribozyme fitness (log ratio)” value is -1.83.

Regarding G128U U144C, the “polymerase ribozyme fitness (log ratio)” value is -3.96.

Regarding U146G A150G G152A, the “polymerase ribozyme fitness (log ratio)” value is -1.84.

Turning to G124C U135A, the “polymerase ribozyme fitness (log ratio)” value was -1.84.

In the case of U134C A142C, the “polymerase ribozyme fitness (log ratio)” value is -0.0581.

Turning to U134A A137G, the “polymerase ribozyme fitness (log ratio)” value was -3.22.

Regarding A138U G141C, the “polymerase ribozyme fitness (log ratio)” value is -3.88.

On to G124A A137G, for which the “polymerase ribozyme fitness (log ratio)” value was -1.05.

Consider A142C U144A U148G, for which the “polymerase ribozyme fitness (log ratio)” value is not above -4.2.

For the variant G124A A150G, the “polymerase ribozyme fitness (log ratio)” value was -0.501.

Turning to U139G A150C, the “polymerase ribozyme fitness (log ratio)” value is -3.84.

Take G124C A142U: the “polymerase ribozyme fitness (log ratio)” value is -0.985.

In the case of U130C U144C A147C, the “polymerase ribozyme fitness (log ratio)” value was -1.95.

For C132U C149G, the “polymerase ribozyme fitness (log ratio)” value was -3.84.

Turning to U127G G141A, the “polymerase ribozyme fitness (log ratio)” value was -3.27.

Take G126C A150G: the “polymerase ribozyme fitness (log ratio)” value is -2.81.

Turning to G126U G152U, the “polymerase ribozyme fitness (log ratio)” value was -2.47.

On to U134A G141U, for which the “polymerase ribozyme fitness (log ratio)” value is -2.41.

As for C131U U144G, the “polymerase ribozyme fitness (log ratio)” value was -0.864.

Turning to G140A U144A, the “polymerase ribozyme fitness (log ratio)” value is -3.68.
